Data: patent US20170152308A1 (Biogen, published 2017)
Like-named read-outs stand apart in the source and are kept apart here.

Experiments:
[1] = target: T1, His-huTDP-43 domain II (amino acid residues 99-204) (human); assay: direct ELISA, coated antigen
T1 construct: Amino terminal His-tagged fragment, E. coli
T1 chain: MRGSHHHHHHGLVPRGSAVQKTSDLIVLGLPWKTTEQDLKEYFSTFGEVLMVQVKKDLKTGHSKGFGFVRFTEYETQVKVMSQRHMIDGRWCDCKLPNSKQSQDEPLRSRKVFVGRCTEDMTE

[2] = target: T2, recombinant full-length His-tagged human TDP-43 (2-414) (human, UniProt Q13148 2-414); assay: direct ELISA, coated antigen
T2 construct: Amino terminal His tag, made in E. coli, purified in 8 M urea; also called full length TDP-43; full-length TDP-43
Protocol: (§1) The half maximal effective concentration (EC₅₀) of the human-derived TDP-43-specific antibodies for human TDP-43 and their target target-specificity was determined substantially as described in Example 2 above. Briefly, 96 well microplates (Corning) were coated with recombinant full length TDP-43 (Biogen Idec, USA), Escherichia coli extract and BSA (Sigma, Buchs, Switzerland), diluted to a concentration of 5 μg/ml in carbonate ELISA coating buffer (pH 9.6) overnight at 4° C. […] Non-specific binding sites were blocked for 1 hr. at room temperature with PBS containing 2% BSA (Sigma, Buchs, Switzerland). Human TDP-43-specific antibodies were diluted to the indicated concentrations and incubated 1 hr. at room temperature. Binding was determined using a donkey anti-human IgGγ-specific secondary antibody conjugated with HRP (Jackson ImmunoResearch, USA), followed by measurement of HRP activity in a standard colorimetric assay. EC₅₀ values were estimated by a non-linear regression using GraphPad Prism software (San Diego, USA).

[3] = target: T3, 6xHis-SUMO-TDP-43 (1-414), properly folded full length (human, UniProt Q13148 1-414); assay: capture ELISA, antigen held by anti-6xHis antibody
T3 construct: Purified with KSCN and arginine, monomeric; captured on the plate by an anti-6xHis antibody; also called folded full-length TDP-43; 6xHis/SUMO tagged full length TDP-43; not shown: N-terminal 6xHis and SUMO tags from a modified pET19-b vector
T3 sequence (Q13148 whole entry): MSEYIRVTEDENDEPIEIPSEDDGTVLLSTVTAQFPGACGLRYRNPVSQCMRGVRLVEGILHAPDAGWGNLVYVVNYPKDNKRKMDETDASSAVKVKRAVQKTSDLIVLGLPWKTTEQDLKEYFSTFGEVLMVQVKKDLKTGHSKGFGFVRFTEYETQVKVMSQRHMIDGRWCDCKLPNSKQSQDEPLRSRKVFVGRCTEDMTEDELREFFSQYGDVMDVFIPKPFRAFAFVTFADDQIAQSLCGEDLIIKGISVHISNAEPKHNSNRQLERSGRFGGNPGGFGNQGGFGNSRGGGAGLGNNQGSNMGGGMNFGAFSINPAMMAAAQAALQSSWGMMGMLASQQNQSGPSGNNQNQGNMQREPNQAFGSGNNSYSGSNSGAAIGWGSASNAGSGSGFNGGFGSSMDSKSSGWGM
Protocol: (§2) Non-specific binding sites were blocked for 1 hr at RT with PBS containing 1% BSA (Sigma) and 0.05% Tween-20 (Fisher Scientific). 6×His-SUMO-TDP43 proteins at a concentration of 1.7 μM were allowed to bind to antibody-coated plates for 1 hr at RT in PBS buffer containing 1% BSA, 300 mM arginine and 0.1% PEG 5000, pH 7.5. Plates were incubated for 1 hr at RT with human antibodies of present invention, titrated in a three-fold dilution series, followed by HRP conjugated anti-human IgG Fc γ (Jackson ImmunoResearch) in PBST containing 1% BSA. HRP activity was measured in a standard colorimetric assay. EC₅₀ values were calculated using a four-parameter logistic curve fit on Softmax pro software (Molecular Devices).
(§3) We measured the binding affinity of the human-derived TDP-43 specific antibodies provided herein to properly folded 6×His/SUMO tagged TDP-43 using a capture ELISA in which native TDP-43 was immobilized without direct adsorption on the surface of the ELISA plate. This was achieved by immobilizing an anti 6×His antibody which then captured native TDP-43. […] After this immobilization step, binding by human antibodies was tested in regular buffers without interference of TDP-43 aggregation.

[4] = target: T4, 6xHis-SUMO-TDP-43 (220-414) (human, UniProt Q13148 220-414); assay: capture ELISA, antigen held by anti-6xHis antibody
T4 construct: Captured on the plate by an anti-6xHis antibody; also called 6xHis/SUMO tagged truncated TDP-43; not shown: N-terminal 6xHis and SUMO tags from a modified pET19-b vector
T4 sequence (Q13148 220-414): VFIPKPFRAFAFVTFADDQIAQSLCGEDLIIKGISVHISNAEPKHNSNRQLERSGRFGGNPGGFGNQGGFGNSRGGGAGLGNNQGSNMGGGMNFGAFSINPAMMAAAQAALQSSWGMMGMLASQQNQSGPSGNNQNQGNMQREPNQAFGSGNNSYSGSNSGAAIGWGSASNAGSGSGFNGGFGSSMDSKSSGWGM
Protocol: as §2, §3

[5] = target: T5, His-huTDP-43 domain I (amino acid residues 2-106) (human); assay: direct ELISA, TDP-43 fragments coated at 6.6 ug/ml, OD 450
T5 construct: Amino terminal His-tagged fragment, E. coli; also called N-terminal domain
T5 chain: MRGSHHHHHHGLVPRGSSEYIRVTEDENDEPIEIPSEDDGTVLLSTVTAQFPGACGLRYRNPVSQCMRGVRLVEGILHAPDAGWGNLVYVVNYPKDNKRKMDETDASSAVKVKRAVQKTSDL
Protocol: (§4) Non-specific binding sites were blocked for 1 hr. at room temperature with PBST containing 2% BSA (Sigma, Buchs, Switzerland). Antibodies were incubated 1 hr. at room temperature. Binding was determined using either a donkey anti-human IgGγ-specific antibody conjugated with HRP (Jackson ImmunoResearch, USA) or a goat-anti mouse IgG (H+L)-specific secondary antibody conjugated with HRP (Jackson ImmunoResearch, USA)., followed by measurement of HRP activity in a standard colorimetric assay.

[6] = target: T6, His-huTDP-43 domain III (amino acid residues 183-273) (human); assay: Western blot, 300 ng recombinant protein per lane, primary antibody 10 nM
T6 construct: Amino terminal His-tagged fragment, E. coli
T6 chain: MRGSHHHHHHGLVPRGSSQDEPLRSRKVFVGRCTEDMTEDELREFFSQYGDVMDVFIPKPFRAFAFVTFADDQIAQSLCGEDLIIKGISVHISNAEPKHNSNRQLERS
Protocol: (§5) Non-specific binding sites were blocked for 1 hr. at room temperature with PBST containing 2% BSA (Sigma, Buchs, Switzerland). Blots were incubated overnight with primary antibodies (10 nM) followed by either a donkey anti-human IgGγ-specific secondary antibody conjugated with HRP (Jackson ImmunoResearch, USA) or a goat-anti mouse IgG (H+L)-specific secondary antibody conjugated with HRP (Jackson ImmunoResearch, USA). Blots were developed using ECL and ImageQuant 350 detection (GE Healthcare, Otelfingen, Switzerland).

[7] = target: T7, His-huTDP-43 domain IV (amino acid residues 258-414) (human, UniProt Q13148 258-414); assay: as above
T7 construct: Amino terminal His-tagged fragment, E. coli, solubilized in 8 M urea; also called Glycine-rich domain
T7 sequence (Q13148 other isoform, or with tags, fused parts or gaps limits assumed): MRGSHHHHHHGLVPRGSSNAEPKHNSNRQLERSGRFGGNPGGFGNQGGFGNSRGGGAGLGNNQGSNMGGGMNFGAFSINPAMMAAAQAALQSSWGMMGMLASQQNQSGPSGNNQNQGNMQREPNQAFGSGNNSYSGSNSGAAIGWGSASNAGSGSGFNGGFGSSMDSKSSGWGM
Protocol: as §5

[8] = target: T8, TDP-43 in human FTLD-U (and ALS) patient tissue sections (human, UniProt Q13148 1-414, limits assumed); assay: immunohistochemistry, FTLD-U case hippocampus
T8 construct: Target of immunohistochemistry; the forms present are not defined; also called pathologic TDP-43; cytoplasmic, nuclear, neuritic TDP-43 in FTLD-U case tissue
T8 sequence (Q13148 whole entry): as the sequence (Q13148 whole entry) above

[9] = target: T6, His-huTDP-43 domain III (amino acid …); assay: direct ELISA, TDP-43 fragments coated at 6.6 ug/ml, OD 450
Protocol: as §4

[10] = target: T7, His-huTDP-43 domain IV (amino acid …); assay: as above
Protocol: as §4

[11] = target: T1, His-huTDP-43 domain II (amino acid …); assay: direct ELISA, coated antigen; direct ELISA, domain coated at 6.6 ug/ml (Example 7, FIG. 5H)
Protocol: as §4
Binding of the human-derived antibodies was determined by direct ELISA.

[12] = target: T5, His-huTDP-43 domain I (amino acid …); assay: Western blot
Protocol: as §5
(§6) Commercially available TDP-43 specific antibody TARDBP (M01), clone 2E2-D3 (Abnova, Taiwan) was used as positive control for human TDP-43 detection whereas, an anti-human IgG Fcγ-specific antibody was used as a negative control. Binding of the human-derived antibodies to specific TDP-43 domains was determined by Western Blot analysis.

[13] = target: T1, His-huTDP-43 domain II (amino acid …); assay: Western blot
Protocol: as §5, §6

[14] = target: T6, His-huTDP-43 domain III (amino acid …); assay: Western blot
Protocol: as §5, §6

[15] = target: T7, His-huTDP-43 domain IV (amino acid …); assay: Western blot
Protocol: as §5, §6

[16] = target: T2, recombinant full-length His-tagged …; assay: direct ELISA, coated antigen; remark: listed apart in the source
Protocol: as §1

[17] = target: T6, His-huTDP-43 domain III (amino acid …); assay: direct ELISA, coated antigen

B1: NI-205.31C11 (antibody, human IgG1, V domains shown)
VH: QVQLVESGGGVVQPGRSLRLSCVASGFTFDNYGMHWVRQAPGKGLEWLAVISYGGDHQFYGDSVKDRFTISRDNSKNTAYLQMHSLRPDDTAVYYCATGVTPDFWGQGTLVTVSS
VL: DVVMTQSPLSLPVTLGQPASISCRSSQSLVHSDGNTYLNWFQQRPGQSPRRLIYKVSHRDSGVPDRFSGSGSGTDFTLKISRVEAEDVGVYYCLQGTHWPPFTFGQGTKLEIK
notes: Human-derived
For B1, the binding result [1] was “binds”, the EC50 [2] was 11 nM and the EC50 [3] was 21.1 nM. B1: no binding [4]; no binding [5]; no binding (tested: 10 nM) [6]. B1: no binding (tested: 10 nM) [7].

B2: NI-205.58E11 (antibody, human IgG1, V domains shown)
VH: EVQLLESGGGLVQPGGSLRLSCAASGFTFSSYSMSWVRQAPGKGLEWVATVGYGGTIYYADSVKGRFTISRDNSKNTLYLEMNSLRAEATAVYYCAKANYGGNRFGLDVWGQGTTVTVSS
VL: QSALTQPPSASGSPGQSVTISCTGTSSDVGGYNYVSWYQHQPGKAPKLMIYEVSKRPSGVPDRFSGSKSGNTASLTVSGLQAEDEADYYCSSYAGSNNLGVFGTGTEVTVL
notes: Human-derived
B2: no binding [2]; no binding (tested: 50 nM) [8]; no binding [3].

B3: NI-205.1A9 (antibody, human IgG1, V domains shown)
VH: QVQLVQSGSELKKPGASVKVSCKASGYTFTSYAMNWVRQAPGQGLEWMGWINTNTGNPTYAQGFTGRFVFSLDTSVSTAYLQISSLKAEDTAVYYCARDRIDGSSWSSWFDPWGQGTLVTVSS
VL: QSVLTQPPSVSGAPGQRVTISCTGSSSNIGAGYDVHWYQQLPGTAPKLLIYGNSNRPSGVPDRFSGSKSGTSASLAITGLQAEDEADYYCQSFDSSLSSSVFGGGTKLTVL
notes: Human-derived
In the case of B3, the binding result [1] is reported as “binds”, the EC50 [2] is reported as 1 nM and the EC50 [3] is reported as greater than 98 nM. B3: no binding [4]; no binding [5]; no binding [9]. B3: no binding [10].

B4: NI-205.38H2 (antibody, human IgG1, V domains shown)
VH: EVQLVESGGDLVQPGGSLRLSCTASGFNLGDYWMHWVRQVPGKGLVWVSRISSDGASVSYADFVEGRFTISRGNARNTLFLELNSLRLDDTAVYYCAMGVVWGQGTLVTVSS
VL: SYELTQPPSVSVSPGQTATISCSGDALPKRYAYWYKQKSGQVPVLIIYEDNKRPSGIPARFSGSSSGTMATLTITGAQVDDEADYYCYSSDNSDTYSVFGGGTKLTVL
notes: Human-derived
For B4, the EC50 [2] was 8.2 nM, the EC50 [3] was greater than 120 nM and the binding result [4] was “no binding”. B4: no binding [5]; no binding [9]; no binding [10]. B4: binds [11].

B5: NI-205.20A1 (antibody, V domains shown)
VH: EVQLVESGGGLVQPGGSLRLSCAASGFTFSSYRMNWVRQAPGKGLEWVSYISTSSSTIYYADSVKGRFTISRDNAKNSLYLQMNSLRAEDTAVYYCARAFDYWGQGTLVTVSS
VL: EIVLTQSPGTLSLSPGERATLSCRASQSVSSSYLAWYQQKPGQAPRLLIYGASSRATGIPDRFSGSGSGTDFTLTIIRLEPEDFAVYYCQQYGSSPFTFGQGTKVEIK
notes: Human-derived
B5: no binding (tested: 10 nM) [12]; no binding (tested: 10 nM) [13]; no binding (tested: 10 nM) [14]. B5: no binding (tested: 10 nM) [15]; no binding [2]; no binding (tested: 50 nM) [8]. B5: no binding [3].

B6: NI-205.68G5 (antibody, human IgG1, V domains shown)
VH: QVQLVESGGGVVQPGRSLRLSCAASGFTFSSYGMHWVRQAPGKGLEWVAIIYYDSSQRYYADSVKGRFTISRDNSKNALYLQMNSLRAEDTALYYCARDLPFHYHRSASFAPSDTWGQGTLVTVSS
VL: EIVLTQSPGTLSLSPGERATLSCRASQAVTNNYLAWYQQKPGQAPRLLVYAASSRATGIPDRFYGSGSGADFTLTISRLEPEDFAVYYCQQYGTSPITFGQGTRLEIK
notes: Human-derived
B6: no binding (tested: 10 nM) [12]; no binding (tested: 10 nM) [13]; no binding (tested: 10 nM) [14]. For the same binder, the binding result [15] was “no binding (tested: 10 nM)”, the EC50 [16] was greater than 100 nM and the EC50 [2] was greater than 100 nM.

B7: NI-205.98H6 (antibody, human IgG1, V domains shown)
VH: EVQLLESGGALVQPGGSLRLSCAASGLTFSRHAFSWVRQAPGKGLEWVAISSGSGGNTYYAASVKGRFTISRDESKNTLYLQMNSLRVEDTALYYCAKEVLEWSLLSRYMDVWGKGTTVTVSS
VL: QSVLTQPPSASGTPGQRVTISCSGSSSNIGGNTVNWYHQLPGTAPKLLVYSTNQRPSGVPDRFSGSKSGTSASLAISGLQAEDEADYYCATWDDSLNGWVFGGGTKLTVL
notes: Human-derived
B7 was tested, and the binding result [17] was “binds”, the EC50 [2] was 2.6 nM and the EC50 [3] was 46 nM. For the same binder, the EC50 [4] was 20 nM and the binding result [5] was “no binding”.
